The record followed here is patent publication CN112390885A (KAIHUI SCIENCE & TECH DEVELOPMENT SHANGHAI CO LTD, dated 2021).

Assay [1] deals with T1, 人TROP2-his (CAT#10428-H08H-100, Sino biological) (human, UniProt P09758 27-274).
T1 construct: Bought; also called 人TROP2-his抗原; not shown: His tag
T1 sequence (looked up): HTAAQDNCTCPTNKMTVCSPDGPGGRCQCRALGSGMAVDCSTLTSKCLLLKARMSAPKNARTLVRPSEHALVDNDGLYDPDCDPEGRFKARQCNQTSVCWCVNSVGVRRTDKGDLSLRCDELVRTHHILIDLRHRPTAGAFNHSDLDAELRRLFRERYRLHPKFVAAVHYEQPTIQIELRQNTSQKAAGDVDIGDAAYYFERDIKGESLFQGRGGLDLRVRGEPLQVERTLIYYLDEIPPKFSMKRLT
Briefly: SPR (Biacore), antibody captured by human Fab capture on CM5, human TROP2-his flowed. (In SPR one partner is held on a chip, and binding of the other changes the refractive index at the surface.)

Assay [2] concerns the target 人源TROP2, full length, on transfected cells (CHOK1-hTROP2 2B2; 293F-TROP2 6F6) (human) (UniProt P09758). Briefly: FACS on CHOK1-TROP2 cells.
The target in assay [3] is T2, 人源TROP2, full length, on transfected cells (CHOK1-hTROP2 2B2; 293F-TROP2 6F6) (human, UniProt P09758 27-323).
T2 construct: Full-length human TROP2 expressed from pIRES in CHOK1 or HEK293 cells; the host cell is named under assay; also called CHOk1-TROP2; CHOK-TROP2
T2 sequence: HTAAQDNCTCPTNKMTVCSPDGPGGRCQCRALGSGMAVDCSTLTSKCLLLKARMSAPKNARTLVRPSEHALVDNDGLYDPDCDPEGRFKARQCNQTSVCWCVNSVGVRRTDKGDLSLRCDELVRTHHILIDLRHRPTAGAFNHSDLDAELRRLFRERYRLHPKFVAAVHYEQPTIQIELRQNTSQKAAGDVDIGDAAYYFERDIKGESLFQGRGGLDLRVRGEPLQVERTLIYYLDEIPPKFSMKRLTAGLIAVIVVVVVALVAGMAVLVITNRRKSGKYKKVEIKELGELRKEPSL
Briefly: FACS on CHOK1-TROP2 cells (reference antibody).

Assay [4] concerns the target T3, 人源TROP2-hFc蛋白 (免疫原A; human TROP2 Thr88-Thr274 with human IgG Fc tag) (human, UniProt P09758 88-274).
T3 construct: also called hTROP2-hFc; 人TROP2-hFc蛋白; not shown: human IgG Fc fragment (hFc) of the pCpC vector
T3 sequence: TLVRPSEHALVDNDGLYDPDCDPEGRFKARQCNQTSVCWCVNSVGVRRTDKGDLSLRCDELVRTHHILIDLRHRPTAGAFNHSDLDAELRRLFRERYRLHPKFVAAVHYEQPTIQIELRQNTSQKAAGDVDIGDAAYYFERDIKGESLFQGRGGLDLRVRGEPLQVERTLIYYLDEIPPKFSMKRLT
Briefly: ELISA, hTROP2-hFc coated at 1.0 μg/mL.

In assay [5] the target is T4, 食蟹猴TROP2, full length, on CHOK1 cells (CHOK1-cTROP2 2B2C2) (cynomolgus monkey, UniProt P09758 27-323 (human entry)).
T4 chain: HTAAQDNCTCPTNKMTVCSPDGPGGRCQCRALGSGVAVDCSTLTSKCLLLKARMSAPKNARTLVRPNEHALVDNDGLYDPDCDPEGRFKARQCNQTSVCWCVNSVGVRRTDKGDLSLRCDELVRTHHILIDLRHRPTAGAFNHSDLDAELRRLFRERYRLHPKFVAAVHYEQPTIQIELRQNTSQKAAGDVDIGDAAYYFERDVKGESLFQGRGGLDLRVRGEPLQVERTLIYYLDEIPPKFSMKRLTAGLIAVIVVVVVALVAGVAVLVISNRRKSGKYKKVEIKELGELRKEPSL
Briefly: FACS on CHOK1-cTROP2 cells.

The target in assay [6] is T2, 人源TROP2, full length, on transfected …. Briefly: FACS on CHOK1-hTROP2 cells.
Assay [7] has the same target. Briefly: FACS on CHOK1-TROP2 cells.

B1: hRS7 (antibody, V domains shown)
VH: QVQLQQSGSELKKPGASVKVSCKASGYTFTNYGMNWVKQAPGQGLKWMGWINTYTGEPTYTDDFKGRFAFSLDTSVSTAYLQISSLKADDTAVYFCARGGFGSSYWYFDVWGQGSLVTVSS
VL: DIQLTQSPSSLSASVGDRVSITCKASQDVSIAVAWYQQKPGKAPKLLIYSASYRYTGVPDRFSGSGSGTDFTLTISSLQPEDFAVYYCQQHYITPLTFGAGTKVEIKR
What is called Kd is the constant that tells how readily two partners part at equilibrium. Higher therefore signals lower affinity. As a reminder, the koff is a measure of how fast the partners let go of each other. Higher therefore signals a short-lived complex. In general, kon refers to a measure of how fast the partners come together. A lower kon goes with slow association. For the molecule B1, in assay [1], the affinity, expressed as Kd, was 1.21 nM; the koff came to 0.000271 s⁻¹; the kon amounted to 225000 M⁻¹ s⁻¹.

B2: hTINA1-H1L1 (antibody, V domains shown)
VH: QVQLVQSGAEVKKPGASVKVSCKASGYTFTTAGMQWVRQAPGQGLEWMGWINTHSGVPKYAEDFKGRVTISADTSTSTAYLQLSSLKSEDTAVYYCARSGFGSSYWYFDVWGQGTLVTVSS
VL: DIQMTQSPSSLSASVGDRVTITCKASQDVSTAVAWYQQKPGKAPKLLIYSASYRYTGVPSRFSGSGSGTDFTLTISSLQPEDFAVYYCQQHYITPLTFGQGTKLEIKR
In assay [1], B2 came in with a Kd of 20.7 nM, a koff of 0.00293 s⁻¹ and a kon of 141000 M⁻¹ s⁻¹.

B3: 嵌合抗体11E8-3 (heavy chain CDR2 DG→EG) (antibody, human IgG1, V domains shown)
VH: QVQLQQSGAELVRPGSSVKISCKASGVAFSTYWMNWVRQRPGQGLEWIGQIYPGEGDTNSNGKFKGKATLTADKSSSTAYMQFSSLTSEDSAVYFCATRIPDHYGSDWGYFDVWGAGTTV
VL: DIVLTQSPASLAVSLGQRATISCRASKSVSTSGYSYMHWYQQKPGQPPKLLIYLASNLESGVPARFSGSGSGTDFTLNIHPVEEEDAATYYCQHSRELPPTFGGGTKLEIK
On to B3, for which the decrease of maximal MFI against wild-type chimeric 11E8 in assay [2] worked out at 53%.

B4: 嵌合抗体11E8-2 (heavy chain CDR2 DG→SG) (antibody, human IgG1, V domains shown)
VH: QVQLQQSGAELVRPGSSVKISCKASGVAFSTYWMNWVRQRPGQGLEWIGQIYPGSGDTNSNGKFKGKATLTADKSSSTAYMQFSSLTSEDSAVYFCATRIPDHYGSDWGYFDVWGAGTTV
VL: DIVLTQSPASLAVSLGQRATISCRASKSVSTSGYSYMHWYQQKPGQPPKLLIYLASNLESGVPARFSGSGSGTDFTLNIHPVEEEDAATYYCQHSRELPPTFGGGTKLEIK
With B4, the decrease of maximal MFI against wild-type chimeric 11E8 in assay [2] was found to be 23%.

B5: 嵌合抗体11E8 (野生型) (antibody, V domains shown)
VH: QVQLQQSGAELVRPGSSVKISCKASGVAFSTYWMNWVRQRPGQGLEWIGQIYPGDGDTNSNGKFKGKATLTADKSSSTAYMQFSSLTSEDSAVYFCATRIPDHYGSDWGYFDVWGAGTTV
VL: DIVLTQSPASLAVSLGQRATISCRASKSVSTSGYSYMHWYQQKPGQPPKLLIYLASNLESGVPARFSGSGSGTDFTLNIHPVEEEDAATYYCQHSRELPPTFGGGTKLEIK
notes: also called 野生型抗体嵌合抗体11E8
For the molecule B5, the binding result in assay [3] is given as “binds”.

B6: 嵌合抗体11E8(DA,NA) (antibody, V domains shown)
VH: QVQLQQSGAELVRPGSSVKISCKASGVAFSTYWMNWVRQRPGQGLEWIGQIYPGDADTNSNAKFKGKATLTADKSSSTAYMQFSSLTSEDSAVYFCATRIPDHYGSDWGYFDVWGAGTTV
VL: DIVLTQSPASLAVSLGQRATISCRASKSVSTSGYSYMHWYQQKPGQPPKLLIYLASNLESGVPARFSGSGSGTDFTLNIHPVEEEDAATYYCQHSRELPPTFGGGTKLEIK
Take B6: in assay [1], the Kd worked out at 10.3 nM, the dissociation rate constant (koff) was determined as 0.00107 s⁻¹ and the kon amounted to 105000 M⁻¹ s⁻¹.

B7: TROP2抗体 11E8E6D11 (antibody, V domains shown)
VH: QVQLQQSGAELVRPGSSVKISCKASGVAFSTYWMNWVRQRPGQGLEWIGQIYPGDGDTNSNGKFKGKATLTADKSSSTAYMQFSSLTSEDSAVYFCATRIPDHYGSDWGYFDVWGAGTTV
VL: DIVLTQSPASLAVSLGQRATISCRASKSVSTSGYSYMHWYQQKPGQPPKLLIYLASNLESGVPARFSGSGSGTDFTLNIHPVEEEDAATYYCQHSRELPPTFGGGTKLEIK
notes: Mouse hybridoma antibody
On to B7, for which the binding result in assay [4], in assay [5] and in assay [6] was “binds” each time.

B8: 嵌合抗体11E8-4 (heavy chain CDR2 DG→DA) (antibody, human IgG1, V domains shown)
VH: QVQLQQSGAELVRPGSSVKISCKASGVAFSTYWMNWVRQRPGQGLEWIGQIYPGDADTNSNGKFKGKATLTADKSSSTAYMQFSSLTSEDSAVYFCATRIPDHYGSDWGYFDVWGAGTTV
VL: DIVLTQSPASLAVSLGQRATISCRASKSVSTSGYSYMHWYQQKPGQPPKLLIYLASNLESGVPARFSGSGSGTDFTLNIHPVEEEDAATYYCQHSRELPPTFGGGTKLEIK
notes: Human IgG1/kappa chimera; also called 突变体嵌合抗体11E8-4
As for B8, the binding result in assay [7] is reported as “binds”.

B9: 嵌合抗体11E8-1 (heavy chain CDR2 NG→NA) (antibody, human IgG1, V domains shown)
VH: QVQLQQSGAELVRPGSSVKISCKASGVAFSTYWMNWVRQRPGQGLEWIGQIYPGDGDTNSNAKFKGKATLTADKSSSTAYMQFSSLTSEDSAVYFCATRIPDHYGSDWGYFDVWGAGTTV
VL: DIVLTQSPASLAVSLGQRATISCRASKSVSTSGYSYMHWYQQKPGQPPKLLIYLASNLESGVPARFSGSGSGTDFTLNIHPVEEEDAATYYCQHSRELPPTFGGGTKLEIK
notes: Human IgG1/kappa chimera; also called 突变抗体嵌合抗体11E8-1
Turning to B9, the binding result in assay [7] is “binds”.
